Article PMC5700927, “Heme enables proper positioning of Drosha and DGCR8 on primary microRNAs” (Nature Communications, 2017)

T1: Drosha (residues 353-1372) (human, UniProt Q9NRR4 353-1372)
T1 construct: Drosha (RNase III), human, residues 353-1372 (CED, two RIIID domains, dsRBD); also called the Drosha chain of MP^Heme, MP^Apo, MP^C352S, MP^ΔHBR and MP^CTT
T1 sequence (looked up): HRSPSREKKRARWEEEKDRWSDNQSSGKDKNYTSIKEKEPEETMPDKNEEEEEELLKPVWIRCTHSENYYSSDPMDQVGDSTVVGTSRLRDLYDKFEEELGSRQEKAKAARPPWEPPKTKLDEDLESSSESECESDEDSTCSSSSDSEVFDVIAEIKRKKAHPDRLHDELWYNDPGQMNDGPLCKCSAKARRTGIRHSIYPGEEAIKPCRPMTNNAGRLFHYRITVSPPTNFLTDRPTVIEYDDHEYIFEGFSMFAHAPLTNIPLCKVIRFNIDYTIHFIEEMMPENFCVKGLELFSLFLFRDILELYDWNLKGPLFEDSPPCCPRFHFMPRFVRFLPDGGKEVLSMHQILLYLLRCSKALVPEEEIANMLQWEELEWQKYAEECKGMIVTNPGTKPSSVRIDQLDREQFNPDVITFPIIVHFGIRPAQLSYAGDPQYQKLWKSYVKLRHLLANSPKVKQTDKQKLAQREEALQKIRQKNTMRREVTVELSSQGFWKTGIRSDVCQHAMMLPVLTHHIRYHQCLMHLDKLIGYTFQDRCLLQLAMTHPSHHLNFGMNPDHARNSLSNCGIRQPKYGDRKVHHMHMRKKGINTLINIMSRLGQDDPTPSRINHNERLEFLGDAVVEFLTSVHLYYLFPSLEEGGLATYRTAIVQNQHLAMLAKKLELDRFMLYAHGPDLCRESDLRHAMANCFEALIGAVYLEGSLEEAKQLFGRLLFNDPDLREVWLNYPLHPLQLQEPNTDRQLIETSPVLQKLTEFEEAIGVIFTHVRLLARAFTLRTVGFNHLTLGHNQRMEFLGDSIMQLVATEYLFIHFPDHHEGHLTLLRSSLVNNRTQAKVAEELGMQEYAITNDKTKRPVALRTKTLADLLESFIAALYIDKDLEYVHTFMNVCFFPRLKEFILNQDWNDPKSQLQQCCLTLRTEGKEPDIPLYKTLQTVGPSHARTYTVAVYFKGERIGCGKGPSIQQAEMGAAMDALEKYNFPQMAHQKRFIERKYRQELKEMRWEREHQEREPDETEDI


Columns and labels:
[1] = target: the molecule itself; assay: AUC; sedimentation velocity of isolated DGCR8; 0.1-1 mg/mL; 20 mM Tris pH 8.0, 500 mM NaCl, 1 mM TCEP; 142,000 x g, about 16 h; wild-type sample heme-saturated
[2] = target: the molecule itself; assay: SEC-MALS; isolated DGCR8; Superdex 200 Increase 10/300; 20 mM Tris pH 8.0, 750 mM NaCl, 1 mM TCEP, 10% glycerol; wild-type sample heme-deficient (Apo); heme-saturated samples inconclusive and not reported
[3] = target: the molecule itself; assay: AUC; sedimentation velocity of purified co-expressed Drosha/DGCR8 complex; 0.1-1 mg/mL; 20 mM Tris pH 8.0, 500 mM NaCl, 1 mM TCEP; 72,400 x g, about 16 h
[4] = target: the molecule itself; assay: SEC-MALS; purified co-expressed Drosha/DGCR8 complex; Superdex 200 Increase 10/300; 20 mM Tris pH 8.0, 750 mM NaCl, 1 mM TCEP, 10% glycerol
[5] = target: T1, Drosha (residues 353-1372); assay: as above; details: both partners purified

Row | Binder | stoichiometry N [1] | stoichiometry N [2] | stoichiometry N [3] | also measured
1 | DGCR8 (residues 223-751), isolated, wild type (domain or fragment, human, UniProt Q8WYQ5 223-751, looked up, DGCR8, human, residues 223-751 (HBR, two dsRBDs, C-terminal tail); also called DGCR8^Heme; DGCR8^Apo; source: E. coli BL21 (DE3) Rosetta, pET21, purified (Ni-NTA, cation exchange, size exclusion); 5 uM hemin Cl in the media for heme-saturated protein) AIVQRDRVDEEALNFPYEDDFDNDVDALLEEGLCAPKKRRTEEKYGGDSDHPSDGETSVQPMMTKIKTVLKSRGRPPTEPLPDGWIMTFHNSGVPVYLHRESRVVTWSRPYFLGTGSIRKHDPPLSSIPCLHYKKMKDNEEREQSSDLTPSGDVSPVKPLSRSAELEFPLDEPDSMGADPGPPDEKDPLGAEAAPGALGQVKAKVEVCKDESVDLEEFRSYLEKRFDFEQVTVKKFRTWAERRQFNREMKRKQAESERPILPANQKLITLSVQDAPTKKEFVINPNGKSEVCILHEYMQRVLKVRPVYNFFECENPSEPFGASVTIDGVTYGSGTASSKKLAKNKAARATLEILIPDFVKQTSEEKPKDSEELEYFNHISIEDSRVYELTSKAGLLSPYQILHECLKRNHGMGDTSIKFEVVPGKNQKSEYVMACGKHTVRGWCKNKRVGKQLASQKILQLLHPHVKNWGSLLRMYGRESSKMVKQETSDKSVIELQQYAKKNKPNLHILSKLQEEMKRLAEEREETRK | 2 | 2 | – | –
2 | DGCR8 (residues 223-751), wild type, co-expressed with Drosha (domain or fragment, human, UniProt Q8WYQ5 223-751, looked up, DGCR8, human, residues 223-751; Two copies per Drosha in the complex (heterotrimer); Heme-saturated in MP^Heme, heme-deficient in MP^Apo; also called DGCR8^Heme; DGCR8^Apo; source: MP^Apo separated from MP^Heme by repeated ion exchange) AIVQRDRVDEEALNFPYEDDFDNDVDALLEEGLCAPKKRRTEEKYGGDSDHPSDGETSVQPMMTKIKTVLKSRGRPPTEPLPDGWIMTFHNSGVPVYLHRESRVVTWSRPYFLGTGSIRKHDPPLSSIPCLHYKKMKDNEEREQSSDLTPSGDVSPVKPLSRSAELEFPLDEPDSMGADPGPPDEKDPLGAEAAPGALGQVKAKVEVCKDESVDLEEFRSYLEKRFDFEQVTVKKFRTWAERRQFNREMKRKQAESERPILPANQKLITLSVQDAPTKKEFVINPNGKSEVCILHEYMQRVLKVRPVYNFFECENPSEPFGASVTIDGVTYGSGTASSKKLAKNKAARATLEILIPDFVKQTSEEKPKDSEELEYFNHISIEDSRVYELTSKAGLLSPYQILHECLKRNHGMGDTSIKFEVVPGKNQKSEYVMACGKHTVRGWCKNKRVGKQLASQKILQLLHPHVKNWGSLLRMYGRESSKMVKQETSDKSVIELQQYAKKNKPNLHILSKLQEEMKRLAEEREETRK | – | – | 2 | –
3 | DGCR8 (residues 223-751) C352S, isolated (domain or fragment, human, UniProt Q8WYQ5 223-751, looked up, also called DGCR8^C352S; source: E. coli BL21 (DE3) Rosetta, pET21, purified (Ni-NTA, cation exchange, size exclusion)) AIVQRDRVDEEALNFPYEDDFDNDVDALLEEGLCAPKKRRTEEKYGGDSDHPSDGETSVQPMMTKIKTVLKSRGRPPTEPLPDGWIMTFHNSGVPVYLHRESRVVTWSRPYFLGTGSIRKHDPPLSSIPSLHYKKMKDNEEREQSSDLTPSGDVSPVKPLSRSAELEFPLDEPDSMGADPGPPDEKDPLGAEAAPGALGQVKAKVEVCKDESVDLEEFRSYLEKRFDFEQVTVKKFRTWAERRQFNREMKRKQAESERPILPANQKLITLSVQDAPTKKEFVINPNGKSEVCILHEYMQRVLKVRPVYNFFECENPSEPFGASVTIDGVTYGSGTASSKKLAKNKAARATLEILIPDFVKQTSEEKPKDSEELEYFNHISIEDSRVYELTSKAGLLSPYQILHECLKRNHGMGDTSIKFEVVPGKNQKSEYVMACGKHTVRGWCKNKRVGKQLASQKILQLLHPHVKNWGSLLRMYGRESSKMVKQETSDKSVIELQQYAKKNKPNLHILSKLQEEMKRLAEEREETRK | 2 | 2 | – | –
4 | DGCR8 (residues 223-751) C352S, co-expressed with Drosha (domain or fragment, human, UniProt Q8WYQ5 223-751, looked up, also called DGCR8^C352S; the DGCR8 chain of MP^C352S) AIVQRDRVDEEALNFPYEDDFDNDVDALLEEGLCAPKKRRTEEKYGGDSDHPSDGETSVQPMMTKIKTVLKSRGRPPTEPLPDGWIMTFHNSGVPVYLHRESRVVTWSRPYFLGTGSIRKHDPPLSSIPSLHYKKMKDNEEREQSSDLTPSGDVSPVKPLSRSAELEFPLDEPDSMGADPGPPDEKDPLGAEAAPGALGQVKAKVEVCKDESVDLEEFRSYLEKRFDFEQVTVKKFRTWAERRQFNREMKRKQAESERPILPANQKLITLSVQDAPTKKEFVINPNGKSEVCILHEYMQRVLKVRPVYNFFECENPSEPFGASVTIDGVTYGSGTASSKKLAKNKAARATLEILIPDFVKQTSEEKPKDSEELEYFNHISIEDSRVYELTSKAGLLSPYQILHECLKRNHGMGDTSIKFEVVPGKNQKSEYVMACGKHTVRGWCKNKRVGKQLASQKILQLLHPHVKNWGSLLRMYGRESSKMVKQETSDKSVIELQQYAKKNKPNLHILSKLQEEMKRLAEEREETRK | – | – | 2 | stoichiometry N [4]: 2
5 | DGCR8^ΔHBR (residues 489-751), co-expressed with Drosha (domain or fragment, human, UniProt Q8WYQ5 489-751, looked up, DGCR8, human, residues 489-751 (tandem dsRBDs and C-terminal tail, no HBR); One copy per Drosha in MP^ΔHBR; also called DGCR8 lacking the HBR; the DGCR8 chain of MP^ΔHBR) LITLSVQDAPTKKEFVINPNGKSEVCILHEYMQRVLKVRPVYNFFECENPSEPFGASVTIDGVTYGSGTASSKKLAKNKAARATLEILIPDFVKQTSEEKPKDSEELEYFNHISIEDSRVYELTSKAGLLSPYQILHECLKRNHGMGDTSIKFEVVPGKNQKSEYVMACGKHTVRGWCKNKRVGKQLASQKILQLLHPHVKNWGSLLRMYGRESSKMVKQETSDKSVIELQQYAKKNKPNLHILSKLQEEMKRLAEEREETRK | – | – | – | stoichiometry N [5]: 1
